We go through two variants from IntAct's records for PubMed 22114287.

First the molecules themselves.
B1: Platelet-activating factor acetylhydrolase IB subunit beta (Mus musculus), P63005 (parent)
chain: MVLSQRQRDELNRAIADYLRSNGYEEAYSVFKKEAELDMNEELDKKYAGLLEKKWTSVIRLQKKVMELESKLNEAKEEFTSGGPLGQKRDPKEWIPRPPEKYALSGHRSPVTRVIFHPVFSVMVSASEDATIKVWDYETGDFERTLKGHTDSVQDISFDHSGKLLASCSADMTIKLWDFQGFECIRTMHGHDHNVSSVAIMPNGDHIVSASRDKTIKMWEVQTGYCVKTFTGHREWVRMVRPNQDGTLIASCSNDQTVRVWVVATKECKAELREHEHVVECISWAPESSYSSISEATGSETKKSGKPGPFLLSGSRDKTIKMWDVSTGMCLMTLVGHDNWVRGVLFHSGGKFILSCADDKTLRVWDYKNKRCMKTLNAHEHFVTSLDFHKTAPYVVTGSVDQTVKVWECR
partner: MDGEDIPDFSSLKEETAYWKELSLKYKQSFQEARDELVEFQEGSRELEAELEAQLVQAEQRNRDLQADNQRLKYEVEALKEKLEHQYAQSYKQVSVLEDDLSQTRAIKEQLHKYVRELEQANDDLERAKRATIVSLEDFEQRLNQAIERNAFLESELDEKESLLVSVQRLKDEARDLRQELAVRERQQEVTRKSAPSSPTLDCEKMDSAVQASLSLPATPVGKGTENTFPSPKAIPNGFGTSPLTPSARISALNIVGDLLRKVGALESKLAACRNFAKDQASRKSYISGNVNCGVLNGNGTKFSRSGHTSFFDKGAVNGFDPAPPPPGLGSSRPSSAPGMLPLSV

The variants in this assay derive from B1. To be noted: with ndel1_human NDEL1, Q9GZM8.
On to R212A, for which the “effect of a mutation on the interaction” value was “disrupting interaction”.
With K147A, the “effect of a mutation on the interaction” value is given as “with no effect”.
